Reference: patent US20210130452A1 (Merck KGaA, published 2021)
Read-outs that look alike come from different tables or passages of the source.

How the values were obtained:
[1] = target: T1, human IL-17F (human, UniProt Q96PD4 31-163); test: SPR, IL-17F-Nanobody complex over captured IL-17RC
T1 construct: GenBank AF384857, expressed in Hek293 as 6-His C-terminal tagged protein; also called hIL-17F; IL-17F-6HIS
T1 sequence: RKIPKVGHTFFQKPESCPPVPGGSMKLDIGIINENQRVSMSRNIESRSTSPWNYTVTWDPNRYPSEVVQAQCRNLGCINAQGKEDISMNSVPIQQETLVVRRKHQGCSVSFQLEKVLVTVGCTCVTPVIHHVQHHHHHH
Description: (§1) The receptor (IL-17RA or IL-17RC) was captured via its human Fc-tail by an anti-human IgG-Fc antibody coated on the chip.

[2] = target: T1, human IL-17F; test: ELISA, coated IL-17F;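 further: binding ELISA on coated antigen from various species, with bound Nanobodies revealed by an HRP-linked anti-myc antibody and esTMB substrate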
Protocol: (§2) Binding of a selected panel of anti-IL-17 Nanobodies to IL-17 of other species was assessed using a binding ELISA. […] HRP (horseradish peroxidase) conjugated anti-myc (Serotec, MCA 2200P) was used for detection using esTMB as substrate.

[3] = target: T2, marmoset IL-17F (marmoset, UniProt A6N6I9 31-163); test: ELISA, coated IL-17F;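 further: binding ELISA on coated antigen from various species, with bound Nanobodies revealed by an HRP-linked anti-myc antibody and esTMB substrate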
T2 sequence (looked up): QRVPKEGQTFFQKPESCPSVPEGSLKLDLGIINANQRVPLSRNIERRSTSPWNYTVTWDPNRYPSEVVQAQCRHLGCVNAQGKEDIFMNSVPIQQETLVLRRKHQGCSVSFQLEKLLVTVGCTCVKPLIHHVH
Protocol: as §2

[4] = target: T3, rat IL-17F (rat, UniProt Q5BJ95 29-161); test: ELISA, coated IL-17F;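 further: binding ELISA on coated antigen from various species, with bound Nanobodies revealed by an HRP-linked anti-myc antibody and esTMB substrate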
T3 sequence (looked up): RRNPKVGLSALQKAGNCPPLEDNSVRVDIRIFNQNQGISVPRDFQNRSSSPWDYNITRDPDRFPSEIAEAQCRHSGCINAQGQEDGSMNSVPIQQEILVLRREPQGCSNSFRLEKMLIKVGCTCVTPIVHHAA
Protocol: as §2

[5] = target: T4, mouse IL-17F (mouse, UniProt Q7TNI7 29-161); test: ELISA, coated IL-17F;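 further: binding ELISA on coated antigen from various species, with bound Nanobodies revealed by an HRP-linked anti-myc antibody and esTMB substrate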
T4 sequence (looked up): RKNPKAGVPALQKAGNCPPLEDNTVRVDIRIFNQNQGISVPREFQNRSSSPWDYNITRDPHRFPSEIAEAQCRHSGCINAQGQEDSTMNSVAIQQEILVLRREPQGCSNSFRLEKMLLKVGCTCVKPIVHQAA
Protocol: as §2

[6] = target: guinea pig IL-17A (guinea pig); test: ELISA, coated IL-17A
Protocol: as §2

[7] = target: T5, human IL-17A (human, UniProt Q16552 24-155); test: ELISA, coated IL-17A
T5 construct: secreted form (GenBank U32659) expressed in Hek293 with C-terminal 6-His; also called hIL-17A; IL-17A-6HIS
T5 sequence (Q16552 other isoform, or with tags, fused parts or gaps): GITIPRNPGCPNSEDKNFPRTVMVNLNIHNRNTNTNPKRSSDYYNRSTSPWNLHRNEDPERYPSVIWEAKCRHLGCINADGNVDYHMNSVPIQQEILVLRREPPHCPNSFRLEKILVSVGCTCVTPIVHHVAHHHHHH
Protocol: as §2

[8] = target: T6, marmoset IL-17A (marmoset, IL-17A is a disulfide-linked homodimer. One chain is given.); test: ELISA, coated IL-17A
T6 chain: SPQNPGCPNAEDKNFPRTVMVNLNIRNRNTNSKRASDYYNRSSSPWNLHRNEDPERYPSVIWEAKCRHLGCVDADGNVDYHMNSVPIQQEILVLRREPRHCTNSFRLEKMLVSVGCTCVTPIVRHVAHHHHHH
Protocol: as §2

[9] = target: T1, human IL-17F; test: KinExA, 100 pM Nanobody
Protocol: The affinity of a limited set of formatted Nanobodies was determined using the KinExA.

[10] = target: T7, human IL-17F (human, UniProt Q96PD4 31-163); test: AlphaScreen hIL-17F-IL-17RC; vs IL17MS13B03
T7 construct: made in Hek293 cells (GenBank AF384857); also called hIL-17F; hIL17F
T7 sequence: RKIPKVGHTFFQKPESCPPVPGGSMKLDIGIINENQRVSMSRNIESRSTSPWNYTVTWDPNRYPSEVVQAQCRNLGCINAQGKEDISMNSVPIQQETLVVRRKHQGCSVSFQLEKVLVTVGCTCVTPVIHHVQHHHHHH

[11] = target: T8, human IL-17A (human, UniProt Q16552 24-155); test: AlphaScreen hIL-17A-IL-17RA; vs IL17MS13B03
T8 construct: secreted form made in Hek293 cells (GenBank U32659); also called hIL-17A; hIL17A
T8 sequence (Q16552 other isoform, or with tags, fused parts or gaps): as the sequence (Q16552 other isoform, or with tags, fused parts or gaps) above

[12] = target: T8, human IL-17A; test: SPR (Biacore) off-rate
[13] = target: T7, human IL-17F; test: SPR (Biacore) off-rate
[14] = target: T9, Cynomolgus monkey IL-17A (Cynomolgus monkey, UniProt A0A2K5TTB0 24-155); test: SPR (Biacore) off-rate
T9 construct: also called cyno IL-17A; cIL-17A

[15] = target: T10, Cynomolgus monkey IL-17F (Cynomolgus monkey, UniProt G7P4V0 31-163); test: SPR (Biacore) off-rate
T10 construct: also called cyno IL-17F; cIL-17F
T10 sequence: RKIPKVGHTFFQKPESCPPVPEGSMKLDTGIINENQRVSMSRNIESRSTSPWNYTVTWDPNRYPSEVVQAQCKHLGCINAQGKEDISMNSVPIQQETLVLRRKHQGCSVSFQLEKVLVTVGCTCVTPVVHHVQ

[16] = target: T11, human IL-17A/F heterodimer (human, UniProt Q16552 24-155; Q96PD4 31-163, limits assumed); test: SPR (Biacore) off-rate
T11 construct: bought, made in E. coli (R&D Systems 5194-IL/CF); also called hIL-17A/F; hIL17A/F

[17] = target: T8, human IL-17A; test: cell-based or functional assay
[18] = target: T7, human IL-17F; test: cell-based or functional assay
[19] = target: T10, Cynomolgus monkey IL-17F; test: cell-based or functional assay
[20] = target: T11, human IL-17A/F heterodimer; test: cell-based or functional assay
[21] = target: T8, human IL-17A; test: SPR (Biacore) off-rate; remark: listed apart in the source
[22] = target: T9, Cynomolgus monkey IL-17A; test: SPR (Biacore) off-rate; remark: listed apart in the source
[23] = target: T11, human IL-17A/F heterodimer; test: SPR (Biacore) off-rate; remark: listed apart in the source
[24] = target: T8, human IL-17A; test: AlphaScreen IL-17A-IL-17RA (average)
[25] = target: T8, human IL-17A; test: cell-based or functional assay; remark: listed apart in the source
[26] = target: T11, human IL-17A/F heterodimer; test: cell-based or functional assay; remark: listed apart in the source
[27] = target: T8, human IL-17A; test: competition ELISA IL-17A-IL-17RA
[28] = target: T1, human IL-17F; test: KinExA, 500 pM Nanobody
[29] = target: T5, human IL-17A; test: KinExA, 500 pM Nanobody
[30] = target: T12, mouse IL-17A (mouse, UniProt Q62386 26-158); test: ELISA, coated IL-17A
T12 sequence (looked up): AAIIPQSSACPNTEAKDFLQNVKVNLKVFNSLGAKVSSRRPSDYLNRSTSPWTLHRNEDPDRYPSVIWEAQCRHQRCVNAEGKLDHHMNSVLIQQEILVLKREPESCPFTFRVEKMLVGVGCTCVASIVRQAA
Protocol: as §2

[31] = target: T13, rat IL-17A (rat, UniProt Q61453 18-150, limits assumed); test: ELISA, coated IL-17A
T13 sequence (looked up): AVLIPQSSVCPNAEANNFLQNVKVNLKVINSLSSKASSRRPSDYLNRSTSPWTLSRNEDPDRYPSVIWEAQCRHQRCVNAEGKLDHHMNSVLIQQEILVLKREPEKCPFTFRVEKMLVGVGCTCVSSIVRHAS
Protocol: as §2

[32] = target: T1, human IL-17F; test: competition ELISA IL17F-RC
Protocol: (§3) To this end, IL-17RA, respectively IL-17RC was coated at a concentration of 1 μg/ml in PBS.

[33] = target: T5, human IL-17A; test: SPR, IL-17A-Nanobody complex over captured IL-17RA
Description: as §1

[34] = target: T5, human IL-17A; test: competition ELISA IL17A-RA
Protocol: as §3

[35] = target: T1, human IL-17F; test: cell-based or functional assay; remark: listed apart in the source
[36] = target: T5, human IL-17A; test: cell-based or functional assay; remark: listed apart in the source

T9 sequence (A0A2K5TTB0 entry or part of it): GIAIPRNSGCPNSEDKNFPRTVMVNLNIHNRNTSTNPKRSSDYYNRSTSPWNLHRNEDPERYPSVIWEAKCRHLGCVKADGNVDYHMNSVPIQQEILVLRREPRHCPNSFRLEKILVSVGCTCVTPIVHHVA
T11 sequence (Q16552 24-155 limits assumed, one chain of several): as the sequence (A0A2K5TTB0 entry or part of it) above, with A3T, S8P, S34N, V77I, K78N, R104P counted along it

B1: 16A04 (VHH)
VHH: EVQLVESGGGLVQAGGSLRLSCAASGRTFSSYVVGWFRQAPGKEREFIGAISGSGDSIYYAVSEKDRFTISRDNGKNTLYLQMSSLKAEDTAVYYCTADQEFGYLRFGRSEYWGQGTQVTVSS
notes: Class 3; also called IL17MS16A04
[1]
  % Biacore binding (IL-17F-NB)-IL-17RC: 4.84%
[2]
  OD: 1.74 OD
[3]
  OD: 1.64 OD
[4]
  OD: 0.0015 OD
[5]
  OD: -0.0015 OD
[6]
  OD: 0.008 OD
[7]
  OD: 0.043 OD
[8]
  OD: 0.019 OD
[9]
  Kd: 0.0194 nM

B2: IL17MS3068 (VHH)
VHH: EVQLVESGGGLVQPGGSLRLSCAASGRASSINWMGWFRQAPGKEREFVAGIRWSDAYTEYADSVKGRFTISRDNSKNTVYLQMNSLRPEDTAVYYCVLDLSTVRYWGQGTLVTVSS
notes: variant of IL17MS13B03; Kabat numbering
[10]
  IC50 fold difference compared to WT: 0.2 fold
[11]
  IC50 fold difference compared to WT: 1.2 fold

B3: IL17MS3067 (VHH)
VHH: DVQLVESGGGLVQPGGSLRLSCAASGRASSINWMGWFRQAPGKEREFVAGIRWSDAYTEYADSVKGRFTISRDNSKNTVYLQMNSLRPEDTAVYYCVLDLSTVRYWGQGTLVTVSS
notes: as for B2
[10]
  IC50 fold difference compared to WT: 0.2 fold
[11]
  IC50 fold difference compared to WT: 1.3 fold
[12]
  koff: 0.000133 s⁻¹
[13]
  koff: 0.00138 s⁻¹
[14]
  koff: 0.000126 s⁻¹
[15]
  koff: 0.00166 s⁻¹
[16]
  koff: 0.000183 s⁻¹
[17]
  IC50 cell based assay hIL17A: 0.7 nM
[18]
  IC50 cell based assay hIL17F: 35 nM
[19]
  IC50 cell based assay cyno IL17F: 13 nM
[20]
  IC50 cell based assay hIL17A/F: 1.8 nM

B4: IL17MS3060 (VHH)
VHH: DVQLVESGGGLVQPGGSLRLSCTASGTIVNIHVMGWYRQAPGKQRELVALIFSGGSADYADSVKGRFTISRDNSKNTVYLQMNSLRPEDTAVYYCAAEIGYYSGGTYYSSEAHWGQGTLVTVSS
notes: variant of IL17MS04G01; basic = A14P, A74S, E81Q, K83R, Q108L
[21]
  koff: 0.00015 s⁻¹
[22]
  koff: 0.000154 s⁻¹
[23]
  koff: 0.000209 s⁻¹
[24]
  IC50: 0.081 nM
[25]
  IC50 cell based assay hIL-17A (IL-6, HT-1080 cells): 0.93 nM
[26]
  IC50 cell based assay hIL-17A/F (IL-6, HT-1080 cells): 5.5 nM
[27]
  IC50: 0.181 nM

B5: IL17MS04G01 (VHH)
VHH: EVQLVESGGGLVQAGGSQRLSCTASGTIVNIHVMGWYRQAPGKQRELVALIFSGGSADYADSVKGRFTISRDNAKNTVYLEMNSLKAEDTAVYYCAAEIGYYSGGTYYSSEAHWGQGTQVTVSS
notes: Class 2 Nanobody, wild type; also called WT
[21]
  koff: 0.000116 s⁻¹
[22]
  koff: 0.00032 s⁻¹
[23]
  koff: 0.00017 to 0.00023 s⁻¹
[24]
  IC50: 0.093 nM
[25]
  IC50 cell based assay hIL-17A (IL-6, HT-1080 cells): 0.71 nM
[26]
  IC50 cell based assay hIL-17A/F (IL-6, HT-1080 cells): 7.55 nM
[27]
  IC50: 0.122 nM

B6: 13E02 (VHH)
VHH: EVQLVESGGGLVQAGGSLRLSCAASGRTYDAMGWLRQAPGKEREFVAAISGSGDDTYYADSVKGRFTISKDNAGITMYLQMNSLKPEDTAVYYCATRRGLYYVWDSNDYENWGQGTQVTVSS
notes: Class 4; also called IL17MS13E02
[1]
  % Biacore binding (IL-17F-NB)-IL-17RC: 7.17%
[2]
  OD: 1.1 OD
[3]
  OD: 0.248 OD
[4]
  OD: 0.0255 OD
[5]
  OD: 0.0155 OD
[28]
  Kd: 3.62 nM
[29]
  Kd: 0.0359 nM
[6]
  OD: 0.006 OD
[7]
  OD: 1.79 OD
[30]
  OD: -0.001 OD
[31]
  OD: 0.003 OD
[8]
  OD: 1.85 OD
[32]
  IC50: 3.02 nM
[33]
  % Biacore binding (IL-17A-NB)-IL-17RA: -1.04%
[34]
  IC50: 0.42 nM

B7: SH-Fc-(GS)2-13B03 (Fc fusion, not shown: a dimerising Fc or GST; small tags and cut ends)
chain: EVQLVESGGGSVQAGDSLRLSCAASGRANSINWFGWFRQTPGKEREFVAGIRWSDAYTEYANSVKGRFTISRDNAKNTVDLQMDSLKPEDTAVYYCVLDLSTVRYWGQGTQVTVSS
notes: also called MSB0010618; SH-(GS)2-Fc-13B03
[35]
  IC50, hIL-17F induced IL-6, HT-1080, without HSA: 5.7 nM
[36]
  Emax, hIL-17A induced IL-6, HT-1080, without HSA: 100%
  IC50, hIL-17A induced IL-6, HT-1080, without HSA: 0.37 nM
[9]
  Kd: 0.145 nM
[34]
  IC50: 0.044 nM

B8: 13B03 (VHH)
VHH: EVQLVESGGGSVQAGDSLRLSCAASGRANSINWFGWFRQTPGKEREFVAGIRWSDAYTEYANSVKGRFTISRDNAKNTVDLQMDSLKPEDTAVYYCVLDLSTVRYWGQGTQVTVSS
notes: Class 4; also called IL17MS13B03
[1]
  % Biacore binding (IL-17F-NB)-IL-17RC: 15.7%
[2]
  OD: 1.66 OD
[3]
  OD: 1.33 OD
[4]
  OD: 0.0085 OD
[5]
  OD: -0.0005 OD
[28]
  Kd: 4.91 nM
[29]
  Kd: 0.0225 nM
[6]
  OD: 0.004 OD
[7]
  OD: 1.95 OD
[30]
  OD: -0.001 OD
[31]
  OD: 0.004 OD
[8]
  OD: 1.94 OD
[32]
  IC50: 91.6 nM
[33]
  % Biacore binding (IL-17A-NB)-IL-17RA: -2.24%
[34]
  IC50: 0.121 nM
